Where “and” joins values, the source holds several entries; their conditions need not be identical. Equal entries are not always repeated.
B1: wt FucP (Escherichia coli K-12) (protein)
chain: MGNTSIQTQSYRAVDKDAGQSRSYIIPFALLCSLFFLWAVANNLNDILLPQFQQAFTLTNFQAGLIQSAFYFGYFIIPIPAGILMKKLSYKAGIITGLFLYALGAALFWPAAEIMNYTLFLVGLFIIAAGLGCLETAANPFVTVLGPESSGHFRLNLAQTFNSFGAIIAVVFGQSLILSNVPHQSQDVLDKMSPEQLSAYKHSLVLSVQTPYMIIVAIVLLVALLIMLTKFPALQSDNHSDAKQGSFSASLSRLARIRHWRWAVLAQFCYVGAQTACWSYLIRYAVEEIPGMTAGFAANYLTGTMVCFFIGRFTGTWLISRFAPHKVLAAYALIAMALCLISAFAGGHVGLIALTLCSAFMSIQYPTIFSLGIKNLGQDTKYGSSFIVMTIIGGGIVTPVMGFVSDAAGNIPTAELIPALCFAVIFIFARFRSQTATN
notes: made in house; host or cells: E. coli BL21 DE3
B2: wt LacY (Escherichia coli K-12) (protein)
chain: MYYLKNTNFWMFGLFFFFYFFIMGAYFPFFPIWLHDINHISKSDTGIIFAAISLFSLLFQPLFGLLSDKLGLRKYLLWIITGMLVMFAPFFIFIFGPLLQYNILVGSIVGGIYLGFCFNAGAPAVEAFIEKVSRRSNFEFGRARMFGCVGWALCASIVGIMFTINNQFVFWLGSGCALILAVLLFFAKTDAPSSATVANAVGANHSAFSLKLALELFRQPKLWFLSLYVIGVSCTYDVFDQQFANFFTSFFATGEQGTRVFGYVTTMGELLNASIMFFAPLIINRIGGKNALLLAGTIMSVRIIGSSFATSALEVVILKTLHMFEVPFLLVGCFKYITSQFEVRFSATIYLVCFCFFKQLAMIFMSVLAGNMYESIGFQGAYLVLGLVALGFTLISVFTLSGPGPLSLLRRQVNEVA
notes: made in house; host or cells: E. coli XL1-Blue

Columns and labels:
Format in all cases: biochemical, Escherichia coli
[1] = substrate: OC1OC[C@@H](O)[C@@H](O)[C@@H]1O; assay: SSM-based electrophysiology, proteoliposomes with wt FucP
Procedure: (§1) Reconstitution of purified proteins (2–20 mg/ml) was carried out with E. coli phospholipids (Avanti Polar Lipids, E. coli polar lipid extract). Preformed liposomes (0.2–2 ml, 10 mg/ml) were dissolved in 1% (w/v) n-octyl-β-D-glucoside, and the protein suspension was mixed on ice to a concentration of 0.2 mg protein/mg lipid (LPR 5).
(§2) Wt XylE, wt FucP, and the mutant proteins were reconstituted using overnight incubation in 400 mg/ml BioBeads (SM-2 Adsorbent Media, Bio-Rad) at 4 °C. After reconstitution, the samples were diluted to 2.5 mg/ml lipid concentration, frozen in liquid nitrogen, and stored at −80 °C. For wt LacY and mutant proteins, this procedure was not successful. We, therefore, applied the previously established n-octyl-β-D-glucoside dilution method (1:100) ([69]).
(§3) SSM measurements were performed as described ([20], [23]). After thawing the sample and sonication in a water bath, 30 μl of proteoliposomes (2.5 mg/ml lipid at LPR 5) was allowed to adsorb for 1 to 2 h to an octadecanethiol/phosphatidylcholine hybrid bilayer on a gold surface (the sensor).
(§4) For measurements, a single solution exchange configuration ([23]) was employed that consisted in three phases of 0.5 s duration each: Flow of nonactivating solution (NA), activating solution (A), and nonactivating solution (NA). Only the activating solution contained the sugar. When pH dependence is determined, pH of NA and A solutions during one experiment are kept constant. Between experiments using different pH values, the sensor was incubated at the new pH for 3 min to equilibrate the intraliposomal pH.
(§5) Instruments with different time resolution were used as required. […] Currents were recorded throughout the entire time and amplified with a current amplifier set to a gain of […] and a rise time of 10 ms (low time-resolution set up) or 3 ms (high time-resolution set up).
(§6) All NA solutions were buffered in 100 mM KPi at a given pH value. […] Sugar concentration jumps initiated sugar-proton symport, and charge transfer was measured by capacitive coupling. Therefore, only transient currents were recorded. […]

[2] = substrate: OC[C@@H]1OC(O)[C@@H](O)[C@H](O)[C@@H]1O; assay: as above; conditions: other: pH 7.6, minor substrate, peak currents, low time-resolution set up
Procedure: as §1, §2, §3, §4, §5, §6

[3] = substrate: OC[C@H]1O[C@@H](O[C@@H]2[C@@H](CO)O[C@](O)(CO)[C@H]2O)[C@H](O)[C@@H](O)[C@H]1O; assay: SSM-based electrophysiology, proteoliposomes with wt LacY
Procedure: as §1
as §2, with “We, therefore, applied the previously established n-octyl-β-D-glucoside dilution method (1:100) ([69]).” left out
For measurements, a single solution exchange configuration ([23]) was employed that consisted in three phases of 0.5 s duration each: Flow of nonactivating solution (NA), activating solution (A), and nonactivating solution (NA). […] When pH dependence is determined, pH of NA and A solutions during one experiment are kept constant. […]
as §5
All NA solutions were buffered in 100 mM KPi at a given pH value. […] Therefore, only transient currents were recorded. […]

[4] = other: pH 7.6, minor substrate, peak currents, low time-resolution set up
[5] = other: pH 7.6, peak currents, Hill equation

Protein | Km [1, 4] | K0.5 [1, 5] | Km [2] | Km [3, 4] | K0.5 [3, 5]
B1 | 12.2 ± 2.8 mM | 80 ± 40 mM | 7.4 ± 1.3 mM |  | 
B2 |  |  |  | 2.27 ± 0.54 mM and 2.3 ± 0.6 mM | 6.94 ± 3.58 mM

Source: paper PMC8784342, “Investigation of sugar binding kinetics of the E. coli sugar/H^+ symporter XylE using solid-supported membrane-based electrophysiology” (The Journal of Biological Chemistry, 2021)
